According to publication PMC5554458 (Cellular signalling, 2017):

Tests used:
Assay in all cases: inhibition of enzyme activity
PDE6C-Y323N = PDE6C-Y323N (human, UniProt P51160 1-858, Y323N)
PDE6C-H262N = PDE6C-H262N (human, UniProt P51160 1-858, H262N)
PDE6C-L858V = PDE6C-L858V (human, UniProt P51160 1-858, L858V, farnesyl on the Cys of the C-terminal CAAX box (farnesylated PDE6C-L858V))
Sequence of PDE6C-L858V (P51160 whole entry L858V): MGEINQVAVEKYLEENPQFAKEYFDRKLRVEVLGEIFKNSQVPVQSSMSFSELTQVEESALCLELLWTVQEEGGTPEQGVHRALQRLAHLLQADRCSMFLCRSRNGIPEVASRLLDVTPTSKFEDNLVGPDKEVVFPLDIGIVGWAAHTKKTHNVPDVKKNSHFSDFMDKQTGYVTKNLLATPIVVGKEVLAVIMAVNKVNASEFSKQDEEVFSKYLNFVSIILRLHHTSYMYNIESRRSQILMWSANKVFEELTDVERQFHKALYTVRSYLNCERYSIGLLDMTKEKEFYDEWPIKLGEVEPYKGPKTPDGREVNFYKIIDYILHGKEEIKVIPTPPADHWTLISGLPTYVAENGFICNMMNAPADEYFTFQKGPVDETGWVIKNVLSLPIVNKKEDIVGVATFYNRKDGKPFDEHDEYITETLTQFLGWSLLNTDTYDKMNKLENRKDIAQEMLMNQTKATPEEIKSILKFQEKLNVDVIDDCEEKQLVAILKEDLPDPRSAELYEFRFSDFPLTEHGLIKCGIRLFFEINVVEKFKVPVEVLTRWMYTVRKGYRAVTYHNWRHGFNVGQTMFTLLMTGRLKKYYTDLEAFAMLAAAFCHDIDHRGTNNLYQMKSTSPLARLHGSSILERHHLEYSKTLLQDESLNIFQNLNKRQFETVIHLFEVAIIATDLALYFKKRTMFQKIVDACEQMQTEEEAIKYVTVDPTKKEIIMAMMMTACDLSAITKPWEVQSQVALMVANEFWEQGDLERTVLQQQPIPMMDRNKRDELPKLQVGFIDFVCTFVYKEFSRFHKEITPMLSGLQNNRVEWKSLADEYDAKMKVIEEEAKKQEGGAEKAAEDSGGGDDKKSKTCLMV

Sequence of PDE6C-Y323N (P51160 whole entry Y323N): as the sequence (P51160 whole entry L858V) above, with Y323N, V858L counted along it
Sequence of PDE6C-H262N (P51160 whole entry H262N): as the sequence (P51160 whole entry L858V) above, with H262N, V858L counted along it

Ki (PDE6C-Y323N): 0.176 nM | Ki (PDE6C-H262N): 0.222 nM | Ki (PDE6C-L858V): 0.114 nM
B1: bovine rod Pγ (natural protein, UniProt P04972 1-87, looked up)
chain: MNLEPPKAEIRSATRVMGGPVTPRKGPPKFKQRQTRQFKSKPPKKGVQGFGDDIPGMEGLGTDITVICPWEAFNHLELHELAQYGII
